Test results: patent publication US20200361992A1 (PROTAGONIST THERAPEUTICS, published 2020)
Starred links: 1 amine or outer side, 2 acyl side, 3 side chain; linkers in the order of their positions; H or OH if unused. Positions of bridges follow the written chain, without caps; N, C: chain ends. Non-standard residues stand in square brackets, D forms with d. Groups on a side chain read outwards from the residue. Primed or numbered codes have the meaning given here. No end group written: not given here. *: point of attachment. Npc″ = L-nipecotic acid, O=C([C@H]1CCCN([*:1])C1)[*:2]; PEG12 = NCCOCCOCCOCCOCCOCCOCCOCCOCCOCCOCCOCCOCCC(=O)O; Palmitoyl = CCCCCCCCCCCCCCCC(=O)*; NMeF = CN[C@@H](Cc1ccccc1)C(=O)O; β3hF = N[C@H](CC(=O)O)Cc1ccccc1; Isovaleryl = CC(C)CC(=O)*; Npc = nipecotic acid

B1: Compd ID 504 (peptide)
chain: Isovaleryl-DTHFPCIK[Phe(4-OCH2CH2NH2)]K-{Lys(isoGlu-Palm)-NH2}
modifications: also: dimer: two monomers linked through K-Lys[isoGlu-Palm]-NH2
B2: Compd ID 506 (peptide)
chain: Isovaleryl-DTHFPCI[dK]F-{IDA(βAla-Palm)-NH2}
modifications: also: dimer: two monomers joined through IDA
B3: Compd ID 507 (peptide)
chain: DTHFPCIKX
modifications: N-terminal isovaleric acid on each monomer; NMe-Phe 9; the two monomers linked through IDA-[(b-Ala)-Palm]; -NH2
B4: Compd ID 508 (peptide)
chain: DTHFPCIKX
modifications: N-terminal isovaleric acid on each monomer; a-MePhe 9; the two monomers linked through IDA-[(b-Ala)-Palm]; -NH2
B5: Compd ID 509 (peptide)
chain: DTHFPCIIFK
modifications: N-terminal isovaleric acid on each monomer; D-Lys 10; the two monomers linked through IDA-[(b-Ala)-Palm]; -NH2
B6: Compd ID 514 (peptide)
chain: DTHFPCIKX
modifications: N-terminal isovaleric acid on each monomer; D-Lys 8; NMe-Phe 9; the two monomers linked through IDA-[(b-Ala)-Palm]; -NH2
B7: Compd ID 515 (peptide)
chain: DTHXPCIKX
modifications: N-terminal isovaleric acid on each monomer; BIP 4; D-Lys 8; NMe-Phe 9; the two monomers linked through IDA-[(b-Ala)-Palm]; -NH2
B8: Compd ID 516 (peptide)
chain: DTHFPCIKX
modifications: N-terminal isovaleric acid on each monomer; b-homoPhe 9; the two monomers linked through IDA-[(b-Ala)-Palm]; -NH2
B9: Compd ID 517 (peptide)
chain: DTHFPCIKX
modifications: not fully specified; N-terminal isovaleric acid on each monomer; D-Lys 8; b-homoPhe 9; the two monomers linked through IDA-[(b-Ala)-Palm]; -NH2
B10: Compd ID 518 (peptide)
chain: Isovaleryl-DTHF[Npc″]CI[dK][NMeF]
modifications: not fully specified (C-terminus); also: dimer: two monomers linked through IDA-[(b-Ala)-Palm]-NH2
B11: Mini-Hepcidin 1-9 (peptide)
peptide: H-DTHFPICIF-NH2
B12: RI-Mini Hepcidin (peptide)
peptide: FICIPFHTD
modifications: all residues D-amino acids (retro inverse); free N-terminus (Hy-); C-terminal amide
B13: Ref. Compd 1 (peptide)
peptide: DTHFPCIKFKPRSKGCK
modifications: N-terminal isovaleric acid; Lys[PEG11-Palm] 10; C-terminal amide; disulfide between the two Cys (6 and 16)
B14: Compd ID 169 (peptide)
peptide: DTHXPCIKXKKC
modifications: N-terminal isovaleric acid; D-Asp 1; Dpa 4; (D)Lys 8; bhPhe 9; Lys(Peg11-Palm) 10; (D)Lys 11; C-terminal amide; disulfide between the two Cys (6 and 12)
B15: Compd ID 170 (peptide)
peptide: DTHXPCIKXKCK
modifications: N-terminal isovaleric acid; Dpa 4; (D)Lys 8; bhPhe 9; Lys(Peg11-Palm) 10; (D)Lys 12; C-terminal amide; disulfide between the two Cys (6 and 11)
B16: Compd ID 171 (peptide)
peptide: DTHXPCIKFKCK
modifications: N-terminal isovaleric acid; bhPhe 4; (D)Lys 8; Lys(Peg11-Palm) 10; (D)Lys 12; C-terminal amide; disulfide between the two Cys (6 and 11)
B17: Compd ID 172 (peptide)
peptide: Isovaleryl-DTH[β3hF][Npc]CI[dK]FK([PEG12-Palmitoyl])C[dK]-NH2
modifications: disulfide 6-11
B18: Compd ID 175 (peptide)
peptide: DTHXPCIKXKKC
modifications: N-terminal isovaleric acid; Dpa 4; (D)Lys 8; bhPhe 9; Lys(Peg11-Palm) 10; dLys_Ac 11; C-terminal amide; disulfide between the two Cys (6 and 12)

Each binder was assayed against T1, human ferroportin (SLC40A1) fused in frame with the GFP protein, stably expressed in HEK293 cells (human, UniProt Q9NP59 1-571) (assay: cell-based or functional assay).
T1 sequence (looked up): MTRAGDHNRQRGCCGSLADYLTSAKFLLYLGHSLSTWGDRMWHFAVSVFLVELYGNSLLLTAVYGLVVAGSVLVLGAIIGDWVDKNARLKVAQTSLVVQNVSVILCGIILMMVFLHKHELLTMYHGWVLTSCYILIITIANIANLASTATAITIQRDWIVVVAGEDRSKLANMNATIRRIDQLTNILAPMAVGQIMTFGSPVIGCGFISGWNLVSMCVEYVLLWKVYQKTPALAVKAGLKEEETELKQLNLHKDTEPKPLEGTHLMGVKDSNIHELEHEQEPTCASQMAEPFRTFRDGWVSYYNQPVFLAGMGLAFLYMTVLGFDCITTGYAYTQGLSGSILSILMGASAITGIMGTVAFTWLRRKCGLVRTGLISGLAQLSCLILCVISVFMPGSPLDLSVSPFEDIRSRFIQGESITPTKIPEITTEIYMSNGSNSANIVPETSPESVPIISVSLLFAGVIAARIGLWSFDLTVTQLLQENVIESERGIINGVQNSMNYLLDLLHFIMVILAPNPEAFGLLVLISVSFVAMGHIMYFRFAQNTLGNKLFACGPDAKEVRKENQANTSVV

Binder | FPN IC50 [nM]
B1 | 20
B2 | 4
B3 | 10
B4 | 9
B5 | 433
B6 | 4
B7 | 26
B8 | 6
B9 | 5
B10 | 8

Biological target: T1, human ferroportin (SLC40A1) fused in …
Test: cell-based or functional assay
Remark: another data set of the same source

Binder | Potency EC50 [nM] | Potency EC50 (nM)
B11 | 712 | –
B12 | – | > 10000
B13 | 30 | –

Biological target: T1, human ferroportin (SLC40A1) fused in …
Test: cell-based or functional assay
Remark: another data set of the same source

Binder | FPN IC50 [nM]
B14 | 12
B15 | 10
B16 | 47
B17 | 39
B18 | 5
